Like-named read-outs stand apart in the source and are kept apart here.
Tests used:
Assay in all cases: yeast two-hybrid
[1] = target: T1, p85 C-terminal SH2 domain (AA 620-727) (human, UniProt P04386 1-147; P27986 620-724)
[2] = target: T2, p85 SH3 domain (AA 6-117) (human, UniProt P04386 1-147; P27986 6-117)
[3] = target: T3, p85 Bcr homology domain (AA 118-340) (human, UniProt P04386 1-147; P27986 118-340)
[4] = target: T4, p85 full length (AA 6-727) (human, UniProt P04386 1-147; P27986 6-724)
T4 construct: also called GAL4-p85

[5] = target: p85 SH2 domains and inter SH2 domain (AA 263-727) (human, UniProt P04386 1-147; P27986 263-724)
[6] = target: T5, p85 N-terminal SH2 and inter SH2 domain (AA 263-620) (human, UniProt P04386 1-147; P27986 263-620)
T5 construct: Two-hybrid bait fusion

[7] = target: T1, p85 C-terminal SH2 domain (AA 620-727); remark: listed apart in the source
[8] = target: T2, p85 SH3 domain (AA 6-117); remark: listed apart in the source
[9] = target: T3, p85 Bcr homology domain (AA 118-340); remark: listed apart in the source

Measured: binding result

B1: PIKAP AA 517-589 (other, not shown: large carriers)
chain: DRLIALKAVTNFGVPVEVFDSEEAEIFQKKLDETTRLLRELQEAQNERLSTRPPGNMICLLGPSSEKCILLNK
notes: The text speaks of the last 74 amino acids, while 517-589 counts 73 residues; also called last 74 amino acids of the c-terminal end of PIKAP
no binding: [1] | [2] | [3]

B2: PIKAP AA 277-360 (other, not shown: large carriers)
chain: EDSGDAEAHAFKSPSKENKKKDKDMLEDKFKSNNLEREQEQLDRIVKESGGKLTRRLVNSQCEFERRKPDGTTTLGLLHPVDPI
not listed: [7] | [8] | [9]
no binding: all other assays above

B3: PIKAP AA 277-589 (other, not shown: large carriers)
chain: EDSGDAEAHAFKSPSKENKKKDKDMLEDKFKSNNLEREQEQLDRIVKESGGKLTRRLVNSQCEFERRKPDGTTTLGLLHPVDPIVGEPGYCLVRLGMTTGRLQSGVNTLQGFKEDKRNKVTPVLYLNYGPYSSYAPHYDSTFANISKDDSDLIYSTYGEDSDLPSDFSIHEFLATCQDYPYVMADSLLDVLTKGGHSRTLQEMEMSLPEDEGHTRTLDTGKEMEQITEVEPPGRLDSSTQDRLIALKAVTNFGVPVEVFDSEEAEIFQKKLDETTRLLRELQEAQNERLSTRPPGNMICLLGPSSEKCILLNK
notes: Two-hybrid prey fusion expressed in yeast YGH1; also called original isolate from two hybrid screening; PI3K Associated Protein AA 277-589
no binding: [7] | [8] | [9]

B4: PIKAP AA 361-516 (other, not shown: large carriers)
chain: VGEPGYCLVRLGMTTGRLQSGVNTLQGFKEDKRNKVTPVLYLNYGPYSSYAPHYDSTFANISKDDSDLIYSTYGEDSDLPSDFSIHEFLATCQDYPYVMADSLLDVLTKGGHSRTLQEMEMSLPEDEGHTRTLDTGKEMEQITEVEPPGRLDSSTQ
not listed: [7] | [8] | [9]
no binding: all other assays above

— patent publication US6762284 (ONYX PHARMACEUTICALS, dated 2004)
